The source of these data is US20190338048A1.

As a reminder, the Kd is the concentration at which binding is half-saturated.

For the first assay, the target named is Pertuzumab kappa light chain V133D (L2), N-terminal HA tag. Put plainly: LCCA, SPR of light chain tags.
In the case of “Pertuzumab Fab heavy chain L143S_S186K_S188T (H2), ABD2-His6 tagged”, the H2L2:H2L1 normalized median ratio is 63% and the H2L2:H2L1 normalized median scalar value ln(r1/f1) is 0.54.

The next assay has as its target Pertuzumab kappa light chain S176V (L2), N-terminal HA tag. Kind of assay: LCCA, SPR of light chain tags.
In the case of “Pertuzumab Fab heavy chain S186I_S188W (H2), ABD2-His6 tagged”, the H2L2:H2L1 normalized median ratio came out at 40% and the H2L2:H2L1 normalized median scalar value ln(r1/f1) is -0.39.

Consider “Pertuzumab Fab heavy chain S186L_S188W (H2), ABD2-His6 tagged”, for which the H2L2:H2L1 normalized median ratio stood at 40% and the H2L2:H2L1 normalized median scalar value ln(r1/f1) is -0.39.

Another assay concerns the target Pertuzumab kappa light chain V133D (L2), N-terminal HA tag. Kind of assay: LCCA, SPR of light chain tags. This is another data set of the same source.
With “Pertuzumab Fab heavy chain L143S_S186K_S188T (H2), ABD2-His6 tagged”, the H2L2:H2L1 normalized median ratio was 64% and the H2L2:H2L1 normalized median scalar value ln(r1/f1) was 0.58.

The next assay addresses Recombinant HER2 protein (HER2-ECD) (UniProt P04626). Kind of assay: SPR, ProteOn XPR36. For orientation: In SPR one partner is held on a chip, and binding of the other changes the refractive index at the surface.
As to “Pertuzumab Fab, H2 S188K / L2 S131D_V133G_T178F”, the dissociation constant (Kd) was determined as 8460 pM.

Regarding “Pertuzumab Fab, H2 L143K / L2 Q124E_V133D”, the Kd is 7410 pM.

For the substance Pertuzumab Fab, H2 S186K / L2 V133D, the Kd is 8010 pM.

“Pertuzumab Fab, H2 S188K / L2 S176E_T178E”: the Kd is 8150 pM.

For the substance “Pertuzumab Fab, H2 L124R / L2 V133G_S176D”, the Kd was 8280 pM.

In a further assay the target is Recombinant human IL-17A (human) (UniProt Q16552). Put plainly: SPR, ProteOn XPR36.
With “CAT-2200 Fab, H1 K145T_V177T_S188E / L1 Y178K”, the Kd amounted to 210 pM.

With “CAT-2200 Fab, H1 L143D_K145T / L1 E124Q_T131K”, the Kd amounted to 220 pM.

For “CAT-2200 Fab heterodimer, H1 V177I_S188K / L1 V133L_S176D_Y178E”, the Kd is 220 pM.

On to “CAT-2200 Fab heterodimer H1L1 with H1 K145T_V177D_S188D and L1 S176K_Y178R”, for which the Change in KD of H1L1 Fab vs wild type, -(log(KD design)-log(KD wt)) is 0.01 and the Kd was 270 pM.

Regarding “CAT-2200 Fab heterodimer, H1 V177I_S188K / L1 V133I_S176D_Y178E”, the Kd stood at 230 pM.

As to “CAT-2200 Fab heterodimer H1L1 with H1 K145T_V177T_S188E and L1 Y178K”, the Change in KD of H1L1 Fab vs wild type, -(log(KD design)-log(KD wt)) came to 0.11 and the dissociation constant (Kd) worked out at 210 pM.

The target of a further assay is Recombinant HER2 protein (HER2-ECD) (UniProt P04626). Put plainly: SPR.
“Pertuzumab Fab, H2 L45P_L143R / L2 P44F_Q124E_V133D”: the Kd is 5900 pM.

In the case of “Pertuzumab Fab with H2 Q39E_L124R_Q179K and L2 Q38R_V133G_S176D_T180E”, the Change in KD of H2L2 Fab vs wild type was 0.016 and the Kd came to 7500 pM.

As for “Pertuzumab Fab, H2 Q39E_L143R / L2 Q38R_Q124E_V133D”, the Kd came out at 7500 pM.

As for “Pertuzumab Fab with H2 L45P_L124R_Q179K and L2 P44F_V133G_S176D_T180E”, the Change in KD of H2L2 Fab vs wild type was 0.065 and the Kd was 6700 pM.

Take “Pertuzumab Fab heterodimer, H2 Q39E_L143E_K145T_Q179E / L2 Q38R_Q124R_T178R”: the Change in KD of H2L2 Fab vs wild type, -(log(KD design)-log(KD wt)) came to 0.023 and the Kd stood at 7400 pM.

For the substance “Pertuzumab Fab heterodimer, H2 L45P_L143E_K145T_Q179E / L2 P44F_Q124R_T178R”, the Kd was determined as 5900 pM.

Another assay concerns the target Recombinant human IL-17A (human) (UniProt Q16552). Put plainly: SPR.
Regarding “CAT-2200 Fab heterodimer (H1L1) with H1 K145T_V177D_S188D and L1 S176K_Y178R”, the Kd came to 270 pM.

For “CAT-2200 designed Fab heterodimer, H1 Q179K / L1 K129T_S180E”, the Change in KD of H1L1 Fab vs wild type, -(log(KD design)-log(KD wt)) was -0.056 and the Kd is 240 pM.

Turning to “CAT-2200 Fab heterodimer H1L1 with H1 L143E_K145T_Q179E and L1 E124Q_T131R”, the Change in KD of H1L1 Fab vs wild type, -(log(KD design)-log(KD wt)) is -0.03 and the Kd was 290 pM.

Take “CAT-2200 Fab heterodimer H1 L143K / L1 K129T_V133D”: the Change in KD of H1L1 Fab vs wild type was found to be 0.03 and the Kd is 260 pM.

In the case of “CAT-2200 designed Fab, H1 A125R_S186R / L1 S122D_K129T_S180E”, the Change in KD of H1L1 Fab vs wild type was -0.0041 and the Kd was determined as 210 pM.

On to “CAT-2200 designed Fab heterodimer, H1 S186R / L1 K129T_S180E”, for which the Change in KD of H1L1 Fab vs wild type, -(log(KD design)-log(KD wt)) was -0.088 and the dissociation constant (Kd) is 260 pM.

On to “CAT-2200 Fab, H1 L143D_K145T / L1 E124Q_T131R”, for which the Change in KD of H1L1 Fab vs wild type is -0.22 and the Kd is 350 pM.

For “CAT-2200 Fab heterodimer, H1 S188K / L1 S176E_Y178E”, the Change in KD of H1L1 Fab vs wild type, -(log(KD design)-log(KD wt)) is -0.24 and the Kd is 360 pM.

In the case of “CAT-2200 Fab with H1 K145T_S188E and L1 Y178K”, the Change in KD of H1L1 Fab vs wild type is -0.22 and the Kd is 340 pM.

Regarding “CAT-2200 Fab, H1 A125R_S186R / L1 S122D_K129T_S180E”, the Change in KD of H1L1 Fab vs wild type, -(log(KD design)-log(KD wt)) is -0.0041 log(KD) and the Kd is 210 pM.

Regarding “CAT-2200 Fab heterodimer, H1 V177I_S188K / L1 V133L_S176D_Y178E”, the Change in KD of H1L1 Fab vs wild type stood at 0.08.

Consider “CAT-2200 Fab heterodimer H1L1 with H1 S186R and L1 K129T_S180E”, for which the Change in KD of H1L1 Fab vs wild type, -(log(KD design)-log(KD wt)) was found to be 0.03 and the Kd came out at 260 pM.

Regarding “CAT-2200 Fab heterodimer H1L1 with H1 L143D_K145T and L1 E124Q_T131K_V133S”, the Change in KD of H1L1 Fab vs wild type was -0.08 and the Kd is 330 pM.

With “CAT-2200 Fab heterodimer, H1 S186R / L1 K129T_S180E”, the Change in KD of H1L1 Fab vs wild type, -(log(KD design)-log(KD wt)) was -0.088 and the Kd stood at 260 pM.

Take “CAT-2200 Fab heterodimer H1L1 with H1 K145T_S188E and L1 Y178K”: the Change in KD of H1L1 Fab vs wild type was -0.1 and the Kd is 340 pM.

As to “CAT-2200 Fab heterodimer H1L1 with H1 L143D_K145T and L1 E124Q_T131K”, the Change in KD of H1L1 Fab vs wild type was 0.1 and the dissociation constant (Kd) is 220 pM.

Take “CAT-2200 designed Fab heterodimer, H1 K145T_S188E / L1 Y178K”: the Change in KD of H1L1 Fab vs wild type, -(log(KD design)-log(KD wt)) was -0.22 and the Kd worked out at 340 pM.

Turning to “CAT-2200 Fab heterodimer H1L1 with H1 V177I_S188K and L1 V133L_S176D_Y178E (Kabat)”, the Kd worked out at 220 pM.

For “CAT-2200 Fab heterodimer H1L1 with H1 L143D_K145T and L1 E124Q_T131R”, the Change in KD of H1L1 Fab vs wild type is -0.1 and the Kd amounted to 350 pM.

On to “CAT-2200 Fab heterodimer H1L1 without pairing substitutions (H1L1 of Mab design sets 10771-11335 and 10771-11360)”, for which the Change in KD of H1L1 Fab vs wild type, -(log(KD design)-log(KD wt)) was found to be 0.

With “CAT-2200 designed Fab heterodimer, H1 L143D_K145T / L1 E124Q_T131K_V133S”, the Change in KD of H1L1 Fab vs wild type, -(log(KD design)-log(KD wt)) was -0.19 and the Kd is 330 pM.

Turning to “CAT-2200 Fab heterodimer (H1L1) with H1 L143K and L1 K129T_V133D”, the Change in KD of H1L1 Fab vs wild type, -(log(KD design)-log(KD wt)) came out at 0.03 and the Kd amounted to 260 pM.

As for CAT-2200 Fab, H1 K145T_S188E / L1 Y178K, the Change in KD of H1L1 Fab vs wild type was -0.22 and the Kd was determined as 340 pM.

For the substance “CAT-2200 Fab heterodimer H1L1 with H1 K145T_V177D_S188D and L1 S176K_Y178K”, the Change in KD of H1L1 Fab vs wild type is 0 and the dissociation constant (Kd) is 270 pM.

With “CAT-2200 Fab heterodimer, H1 V177I_S188K / L1 V133I_S176D_Y178E”, the Change in KD of H1L1 Fab vs wild type worked out at 0.08.

Regarding “CAT-2200 Fab heterodimer H1L1 with H1 F174G and L1 T116F_S176F”, the Change in KD of H1L1 Fab vs wild type amounted to 0.08 and the Kd is 230 pM.

As to “CAT-2200 Fab heterodimer H1 L143E_K145T_Q179E / L1 E124Q_T131R”, the Change in KD of H1L1 Fab vs wild type is -0.03 and the Kd was found to be 290 pM.

As for “CAT-2200 Fab heterodimer (H1L1) with H1 K145T_V177D_S188D and L1 S176K_Y178K”, the Kd came to 270 pM.

Turning to “CAT-2200 Fab heterodimer H1L1 without pairing substitutions (wild-type H1 and L1)”, the Change in KD of H1L1 Fab vs wild type, -(log(KD design)-log(KD wt)) is 0.

As to “CAT-2200 Fab heterodimer H1L1 of design 10652-10755 (H1 L143E_K145T, L1 E124R)”, the Kd amounted to 280 pM.

For the next assay, the target named is Recombinant HER2 protein (HER2-ECD) (UniProt P04626). Kind of assay: SPR as for KD.
Take “Pertuzumab Fab, H2 S188K / L2 S131D_V133G_T178F”: the Change in KD of H2L2 Fab vs wild type, -(log(KD design)-log(KD wt)) is -0.02 log units.

On to “Pertuzumab Fab, H2 L143K / L2 Q124E_V133D”, for which the Change in KD of H2L2 Fab vs wild type, -(log(KD design)-log(KD wt)) worked out at 0.04 log units.

As for Pertuzumab Fab, H2 S186K / L2 V133D, the Change in KD of H2L2 Fab vs wild type, -(log(KD design)-log(KD wt)) was found to be 0 log units.

With “Pertuzumab Fab, H2 S188K / L2 S176E_T178E”, the Change in KD of H2L2 Fab vs wild type, -(log(KD design)-log(KD wt)) was found to be 0 log units.

As to “Pertuzumab Fab, H2 L124R / L2 V133G_S176D”, the Change in KD of H2L2 Fab vs wild type, -(log(KD design)-log(KD wt)) was -0.01 log units.

In another assay the target is Recombinant human IL-17A (human) (UniProt Q16552). Kind of assay: SPR as for KD.
For “CAT-2200 Fab, H1 L124E_V190D / L1 L135K_Y178F”, the Change in KD of H1L1 Fab vs wild type, -(log(KD design)-log(KD wt)) is -3.56 log units.

Regarding “CAT-2200 Fab, H1 K145T_V177T_S188E / L1 Y178K”, the Change in KD of H1L1 Fab vs wild type, -(log(KD design)-log(KD wt)) was 0.11 log units.

Consider “CAT-2200 Fab, H1 L124E_V190D / L1 V133I_L135K_Y178F”, for which the Change in KD of H1L1 Fab vs wild type, -(log(KD design)-log(KD wt)) is -3.56 log units.

As for “CAT-2200 Fab, H1 L143D_K145T / L1 E124Q_T131K”, the Change in KD of H1L1 Fab vs wild type, -(log(KD design)-log(KD wt)) was found to be 0.1 log units.

Regarding “CAT-2200 Fab, H1 L124E_V190D / L1 V133I_L135K”, the Change in KD of H1L1 Fab vs wild type, -(log(KD design)-log(KD wt)) was -3.56 log units.
